Assay [1] has as its target FcεRI at the surface of basophils (human) (UniProt P12319). As to the kind of experiment: cell-based or functional assay.
Assay [2] has as its target T1, recombinant soluble human FcγRIIB (UniProt P31994 43-217).
T1 chain: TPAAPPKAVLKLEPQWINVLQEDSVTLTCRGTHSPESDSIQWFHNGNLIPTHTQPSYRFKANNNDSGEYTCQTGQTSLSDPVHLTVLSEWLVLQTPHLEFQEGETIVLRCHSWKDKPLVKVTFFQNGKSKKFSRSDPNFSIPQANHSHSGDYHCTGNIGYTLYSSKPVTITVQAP
Kind of assay: SPR; wildtype Fc format.

In assay [3] the target is T2, recombinant soluble human FcγRIIB (human, UniProt P31994 43-217).
T2 construct: also called sFcγRIIB; SM101
T2 sequence: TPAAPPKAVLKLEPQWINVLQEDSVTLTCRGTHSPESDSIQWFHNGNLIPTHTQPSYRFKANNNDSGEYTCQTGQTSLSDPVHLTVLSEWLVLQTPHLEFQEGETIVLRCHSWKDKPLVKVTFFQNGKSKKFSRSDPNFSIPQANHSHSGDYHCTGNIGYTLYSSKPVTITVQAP
Kind of assay: antigen-specific ELISA, sFcγRIIB coated, hybridoma supernatant.
Method: Fusion of the myeloma cell line with the rat immune spleen cells was performed according to standard procedures. […] MAbs from tissue culture supernatant bound to the proteins were detected with HRP conjugated mAbs against the rat IgG isotypes (TIB173 anti-IgG2a, TIB174 anti-IgG2b, TIB170 anti-IgG1 all from ATCC, R-2c anti-IgG2c homemade), thus avoiding mAbs of IgM class. […] A FACS based assay was used to screen the antibodies for specific binding of the native antigen). Additionally the antibodies were screened for non-blocking characteristics, i.e. these antibodies still allow binding of IgG or immune complexes to membrane-bound FcγRIIB.

The target of assay [4] is T1, recombinant soluble human FcγRIIB. As to the kind of experiment: SPR; N297A format.
Assay [5] has as its target T3, native FcγRIIB expressed on cells (Raji, Daudi, PBMC B cells) (human, UniProt P31994 43-310).
T3 sequence (looked up): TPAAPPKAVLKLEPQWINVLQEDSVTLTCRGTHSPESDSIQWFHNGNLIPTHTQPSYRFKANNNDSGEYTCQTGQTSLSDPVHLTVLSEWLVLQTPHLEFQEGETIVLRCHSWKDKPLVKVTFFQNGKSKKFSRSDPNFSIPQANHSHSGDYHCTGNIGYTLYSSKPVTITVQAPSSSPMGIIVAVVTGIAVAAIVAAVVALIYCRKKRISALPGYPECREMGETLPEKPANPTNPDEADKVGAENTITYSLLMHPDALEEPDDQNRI
As to the kind of experiment: cell-based or functional assay.

FcεRI at the surface of basophils (human), sequence (P12319 26-257): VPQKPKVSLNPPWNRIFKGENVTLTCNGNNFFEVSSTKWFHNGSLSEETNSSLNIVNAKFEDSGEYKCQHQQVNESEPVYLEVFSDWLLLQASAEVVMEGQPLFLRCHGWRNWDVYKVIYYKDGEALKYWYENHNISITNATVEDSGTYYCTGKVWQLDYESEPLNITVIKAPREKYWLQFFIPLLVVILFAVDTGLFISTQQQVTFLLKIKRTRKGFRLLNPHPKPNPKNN

B1: ch8A6_cε2-4-degly (bispecific antibody, part only; not given: CH1, CL and IgE Fc domains, not shown: a dimerising Fc or GST)
heavy, part: EVQLVESGGDLVQPGRSLRLSCAASGFTFSDYYMAWVRQAPKKGLEWVASISSDGSNTYYGDSVKGRFTISRDNTRSNLYLQMNSLRSEDTATYYCARPGDYWGQGVMVTVSS
light, part: NIVMTQSPTSMFISVGDRVTMNCKASQNVGTYVDWFQQKTGQSPTLLIFGASNRYTGVPDRFTGSGSGTDFTLSISNMQAEDLAVYYCLQYNYHPYTFGPGTTLELKR
For the molecule B1, in assay [1], the basophil activation by pollen, CD63-positive basophils, after 2 h incubation with antibody (% positive cells) was in the range of 84.4 to 88; the basophil activation by pollen, CD63-positive basophils, after 6 h incubation with 0.5 µg/ml antibody is 76.6%; the basophil activation by pollen, CD63-positive basophils, after 6 h incubation with antibody fell in the range of 76 to 84%.

B2: ch8A6_wt (antibody)
chain 1: EVQLVESGGDLVQPGRSLRLSCAASGFTFSDYYMAWVRQAPKKGLEWVASISSDGSNTYYGDSVKGRFTISRDNTRSNLYLQMNSLRSEDTATYYCARPGDYWGQGVMVTVSS
chain 2: NIVMTQSPTSMFISVGDRVTMNCKASQNVGTYVDWFQQKTGQSPTLLIFGASNRYTGVPDRFTGSGSGTDFTLSISNMQAEDLAVYYCLQYNYHPYTFGPGTTLELKR
B2: the koff in assay [2] came to 0.00049 s⁻¹.

B3: monoclonal antibody 8A6 (rat IgG2a) (antibody, V domains shown)
VH: EVQLVESGGDLVQPGRSLRLSCAASGFTFSDYYMAWVRQAPKKGLEWVASISSDGSNTYYGDSVKGRFTISRDNTRSNLYLQMNSLRSEDTATYYCARPGDYWGQGVMVTVSS
VL: NIVMTQSPTSMFISVGDRVTMNCKASQNVGTYVDWFQQKTGQSPTLLIFGASNRYTGVPDRFTGSGSGTDFTLSISNMQAEDLAVYYCLQYNYHPYTFGPGTTLELKR
notes: Rat IgG2a from hybridoma supernatant; also called mAb 8A6; rat antibody 8A6
B3: the binding result in assay [3] is recorded as “binds”.

B4: chGB3_N297A (antibody, V domains shown)
VH: VQLQQSGPELVKPGASVKISCKASGYTFTDYYIYWVKQWPGQGLEWIGWIFPGTGNTYYNENFKDKATLTIDRSSSTAYMLLGSLTSEDSAVYFCYGPFAYWGQ
VL: RIQLTQSPSSLSASLGERVSLTCRASQEISGYLSWLQQKPDGTIKRLIYATSALDSGVPKRFSGSGSGSNYSLTISSLESEDFADYYCLQYANYPYTFGGGTKL
Consider B4, for which the koff in assay [4] is 0.01 s⁻¹. In addition, the “FcγRIIB-ITIM phosphorylation, densitometry of Western blot, Daudi cells, against untreated cells” value in assay [5] was found to be 2.8 fold.

Source of the values: patent US20170226208A1 (SUPPREMOL, published 2017).
